Experimental data as given in patent US12351834B2, “Compositions and methods for the treatment of ornithine transcarbamylase deficiency” (Arcturus Therapeutics, Inc., priority 2020, dated 2025).

Legend:
Assay type in all cases: in vivo, mouse
Spf/ash mice [1] = assay: Survival of Spf/ash mice on a high protein diet; conditions: 0.3, 1 and 3 mg/kg IV on days 0, 7, 14, 21, 28
Description: Spf/ash mice received an IV injection with either PBS or lipid-formulated OTC-mRNA (1799.7) at three doses: 0.3 mg/kg, 1 mg/kg and 3 mg/kg. Mice were fed a high protein diet from day 0 to the end of the study. Treated animals were injected intravenously on days 0, 7, 14, 21 and 28 (indicated by the arrows in the chart in FIG. 17). Survival rates were determined every week. The plot in FIG. 17 summarizes the entire study timeline and the survival rates observed for the different groups.
The pharmacology of the OTC mRNA lipid formulations was investigated in studies that elucidated their efficacy and potential mechanism of action in a series of studies in the hemizygous male Spf/ash mouse model. […] The hypomorphic Spf/ash mouse shares similar biochemical features with OTCD patients, including elevated concentrations of urinary orotic acid (orotate), blood glutamine, and decreased concentrations of blood citrulline and arginine. The hemizygous male Spf/ash mice used in the pharmacology studies were derived by crossing B6EiC3Sn a/A-Otcspfash/J Het mice x B6EiC3SnF1/J mice as homozygous mice are not viable. […]
To study the effect of different ionizable cationic lipids on survival rate, Spf/ash mice received an IV injection with either PBS or one of three different lipid-formulated OTC-mRNA (1799.7) compositions. […] Survival rates were determined daily. […]

Spf/ash mice [2] = assay: Urinary orotate levels in Spf/ash mice; conditions: 3 mg/kg IV, lipid-formulated
Description: Spf/ash mice received an IV injection with either PBS or lipid-formulated OTC-mRNA construct 1799.7 (5MeOU chemistry) at three different doses: 0.3 mg/kg, 1 mg/kg and 3 mg/kg. Urinary orotate levels were determined in untreated wild-type (WT) and both untreated and treated Spf/ash mice. A urinary orotate time course was performed in Spf/ash and WT mice, and urinary orotate levels were measured at each timepoint. The results can be seen in FIG. 12. Urinary orotate was normalized to creatinine, which is represented in the graph on the y-axis throughout the time course and served as a proof-of-concept of functional restoration of OTC activity post-injection.
Spf/ash mice received an IV injection with either PBS or lipid-formulated (as described in Example 1) OTC-mRNA at 1 mg/kg and 3 mg/kg. WT mice were included as an internal control. Urinary orotate levels were measured at 0, 1, 3, 7 and 14 days, and levels were normalized to creatinine (FIG. 16).

Spf/ash mice [3] = assay: PK/PD analysis of human OTC expression and urinary orotate in Spf/ash mice; conditions: 1 mg/kg and 3 mg/kg IV, 96 hours post dose
Description: Spf/ash mice received an IV injection with either PBS or certain lipid-formulated OTC-mRNAs from Table 5 at 1 mg/kg and 3 mg/kg using two different uridine chemistries (N1MPU and 5MeOU). WT mice were used as internal controls. Human-specific OTC levels were measured by MRM, and urinary orotate was determined in each sample and normalized to creatinine.

B1: 1799.7 (nucleic acid)
chain: ATGCTGTTCAACCTGCGCATCCTGCTGAACAACGCCGCCTTCCGCAACGGCCACAACTTCATGGTGCGCAACTTCCGCTGCGGCCAGCCCCTGCAGAACAAGGTGCAGCTGAAGGGCCGCGACCTGCTGACCCTGAAGAACTTCACCGGCGAGGAGATCAAGTACATGCTGTGGCTGAGCGCCGACCTGAAGTTCCGCATCAAGCAGAAGGGCGAGTACCTGCCCCTGCTGCAGGGCAAGAGCCTGGGCATGATCTTCGAGAAGCGCAGCACCCGCACCCGCCTGAGCACCGAGACAGGCTTCGCCCTGCTGGGCGGCCACCCCTGCTTCCTGACCACCCAGGACATCCACCTGGGCGTGAACGAGAGCCTGACCGACACCGCCCGCGTGCTGAGCAGCATGGCCGACGCCGTGCTGGCCCGCGTGTACAAGCAGAGCGACCTGGACACCCTGGCCAAGGAGGCCAGCATCCCCATCATCAACGGCCTGAGCGACCTGTACCACCCCATCCAGATCCTGGCCGACTACCTGACCCTGCAGGAGCACTACAGCAGCCTGAAGGGCCTGACCCTGAGCTGGATCGGCGACGGCAACAACATCCTGCACAGCATCATGATGAGCGCCGCCAAGTTCGGCATGCACCTGCAGGCCGCCACCCCCAAGGGCTACGAGCCCGACGCCAGCGTGACCAAGCTGGCCGAGCAGTACGCCAAGGAGAACGGCACCAAGCTGCTGCTGACCAACGACCCCCTGGAGGCCGCCCACGGCGGCAACGTGCTGATCACCGACACCTGGATCAGCATGGGCCAGGAGGAGGAGAAGAAGAAGCGCCTGCAGGCCTTCCAGGGCTACCAGGTGACCATGAAGACCGCCAAGGTGGCCGCCAGCGACTGGACCTTCCTGCACTGCCTGCCCCGCAAGCCCGAGGAGGTGGACGACGAGGTGTTCTACAGCCCCCGCAGCCTGGTGTTCCCCGAGGCCGAGAACCGCAAGTGGACCATCATGGCCGTGATGGTGAGCCTGCTGACCGACTACAGCCCCCAGCTGCAGAAGCCCAAGTTCTGA
modifications: 100% 5-methoxyuridine; lipid formulation
For B1, the “dose dependence of survival rate” value (Spf/ash mice [1]) was “dose-dependent”, the “survival during hyperammonemic crisis vs PBS” value (Spf/ash mice [1]) was “greater survival” and the “urinary orotate levels in treated Spf/ash mice vs WT mice” value (Spf/ash mice [2]) was “comparable to urinary orotate levels in WT mice”. The “duration of sustainable reduction of urinary orotate levels” value (Spf/ash mice [2]; normalized to creatinine) was “up to 14 days” and the “PK/PD correlation between hOTC protein expression and reduction of urinary orotate” value (Spf/ash mice [3]) was “high PK/PD correlation”.
